From patent US7348140B1, “Clinical indications for genotyping polymorphic variants of G-protein coupled receptors” (Acadia Pharmaceuticals, Inc., priority 2001, dated 2008)

Columns and labels:
[1] = target: Cholecystokinin B receptor L224Q variant (Glutamine 224) (UniProt P32239); experiment: cell-based or functional assay
[2] = target: Cholecystokinin B receptor, wild type (Leucine 224) (UniProt P32239); experiment: cell-based or functional assay
Sequence of Cholecystokinin B receptor, wild type (Leucine 224) (P32239 whole entry): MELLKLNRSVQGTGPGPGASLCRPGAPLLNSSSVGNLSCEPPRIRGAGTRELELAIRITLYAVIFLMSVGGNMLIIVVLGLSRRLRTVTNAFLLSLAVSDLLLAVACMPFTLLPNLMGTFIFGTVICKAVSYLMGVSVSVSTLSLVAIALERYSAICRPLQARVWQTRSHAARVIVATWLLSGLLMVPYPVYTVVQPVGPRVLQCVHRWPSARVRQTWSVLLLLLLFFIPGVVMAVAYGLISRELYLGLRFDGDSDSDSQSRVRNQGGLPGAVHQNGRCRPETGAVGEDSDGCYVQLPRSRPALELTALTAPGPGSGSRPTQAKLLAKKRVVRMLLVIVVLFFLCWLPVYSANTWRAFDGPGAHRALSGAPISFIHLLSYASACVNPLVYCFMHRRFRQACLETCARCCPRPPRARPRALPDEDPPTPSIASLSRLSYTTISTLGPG

Sequence of Cholecystokinin B receptor L224Q variant (Glutamine 224) (P32239 whole entry L224Q): as the sequence (P32239 whole entry) above, with L224Q counted along it

- Ave -Log EC50, R-SAT functional potency [1]: 9.78 -log EC50
- FOLD (shift in functional potency against wild type; negative = gain of function) [1]: -11.7 fold
- Ave -Log EC50, R-SAT functional potency [2]: 8.71 -log EC50
Substance: Gastrin (from UniProt P01350 76-92) (peptide)
